Source: patent publication US20200087416A1 (Innovent, published 2020)
Positions count from the first letter of the chain named.

B1: ADI-10085 (antibody, human IgG2, kappa, V domains shown)
VH: QLQLQESGPGLVKPSETLSLTCTVSGGSIVSSSYYWAWIRQPPGKGLEWIGSINYKGSTYYNPSLKSRVTISVDTSKNQFSLKLSSVTAADTAVYYCARENSGVVPAAGPNWFGPWGQGTLVTVSS
VL: EIVLTQSPATLSLSPGERATLSCRASQSVSSYLAWYQQKPGQAPRLLIYDASNRATGIPARFSGSGSGTDFTLTISSLEPEDFAVYYCQQRRNWFTFGGGTKVEIKR
notes: IgG
B2: ADI-10088 (antibody, human IgG2, kappa, V domains shown)
VH: B1 VH with V30G, K56R, G114D
VL: B1 VL
notes: IgG
B3: ADI-10089 (antibody, human IgG2, kappa, V domains shown)
VH: B1 VH with V30G, A37T, K56R, G114D
VL: B1 VL
notes: IgG
B4: ADI-10085 Fab (Fab, V domains shown)
VH: B1 VH
VL: B1 VL
B5: ADI-10087 (antibody, human IgG2, kappa, V domains shown)
VH: B1 VH with V30S, S32A, A37S, K56R
VL: B1 VL
notes: also called anti-PCSK antibody of the invention

Columns and labels:
[1] = molecular target: T1, human PCSK9 (PCSK9 antigen, SEQ ID NO. 53) (human, UniProt A8T644 31-152; Q8NBP7 153-692, Biotin-labelled on amines in the MSD-SET and sorting experiments; positions not given.); assay: cell-based or functional assay
[2] = molecular target: T1, human PCSK9 (PCSK9 antigen, SEQ ID NO. …); assay: flow cytometry, PCSK9 left on CHO-LDLR cells (anti-His-FITC) after premix with 0.1 nM antibody
[3] = molecular target: T1, human PCSK9 (PCSK9 antigen, SEQ ID NO. …); assay: flow cytometry, PCSK9 left on CHO-LDLR cells (anti-His-FITC) after premix with 1000 nM antibody
[4] = molecular target: T2, murine PCSK-9 (murine, UniProt Q80W65 35-694); assay: BLI (ForteBio), IgG on AHQ sensor, 100 nM antigen
T2 construct: also called mouse PCSK9

[5] = molecular target: T1, human PCSK9 (PCSK9 antigen, SEQ ID NO. …); assay: BLI (ForteBio), IgG on AHQ sensor, 100 nM antigen
[6] = molecular target: T1, human PCSK9 (PCSK9 antigen, SEQ ID NO. …); assay: cell-based or functional assay; remark: listed apart in the source
[7] = molecular target: T1, human PCSK9 (PCSK9 antigen, SEQ ID NO. …); assay: flow cytometry, PCSK9 left on CHO-LDLR cells (anti-His-FITC) after premix with 100 nM antibody
[8] = molecular target: T1, human PCSK9 (PCSK9 antigen, SEQ ID NO. …); assay: flow cytometry, PCSK9 left on CHO-LDLR cells (anti-His-FITC) after premix with 10 nM antibody
[9] = molecular target: T1, human PCSK9 (PCSK9 antigen, SEQ ID NO. …); assay: flow cytometry, PCSK9 left on CHO-LDLR cells (anti-His-FITC) after premix with 1 nM antibody
[10] = molecular target: T2, murine PCSK-9; assay: MSD-SET, Fab with biotin-PCSK9 in solution, IgG on plate, pH 7.4
[11] = molecular target: T1, human PCSK9 (PCSK9 antigen, SEQ ID NO. …); assay: as above
[12] = molecular target: T1, human PCSK9 (PCSK9 antigen, SEQ ID NO. …); assay: MSD-SET, Fab with biotin-PCSK9 in solution, IgG on plate, pH 6.0
[13] = molecular target: T1, human PCSK9 (PCSK9 antigen, SEQ ID NO. …); assay: ForteBio method and MSD-SET assay, as the sentence says; end tied to ADI-10085 by Table 2
Wherever BODIPY-LDL uptake by HepG2 cells, fluorescence, 16.8 nM, replicate 1 is given: unit not given here.
Wherever BODIPY-LDL uptake by HepG2 cells, fluorescence, 16.8 nM, replicate 2 is given: unit not given here.
Wherever BODIPY-LDL uptake by HepG2 cells, fluorescence, 4.2 nM, replicate 1 is given: unit not given here.
Wherever BODIPY-LDL uptake by HepG2 cells, fluorescence, 4.2 nM, replicate 2 is given: unit not given here.
Wherever BODIPY-LDL uptake by HepG2 cells, fluorescence, 66.7 nM, replicate 1 is given: unit not given here.
Wherever BODIPY-LDL uptake by HepG2 cells, fluorescence, 66.7 nM, replicate 2 is given: unit not given here.

Row | Binder | fluorescence of BODIPY-LDL in HepG2 cells against no anti-PCSK9 antibody [1] [times] | Fluorescence Signal Value [2] | Fluorescence Signal Value [3] | Kd [4] [pM] | Kd [5] [pM] | BODIPY-LDL uptake by HepG2 cells, fluorescence, 4.2 nM, replicate 1 [6] | BODIPY-LDL uptake by HepG2 cells, fluorescence, 4.2 nM, replicate 2 [6] | BODIPY-LDL uptake by HepG2 cells, fluorescence, 16.8 nM, replicate 1 [6] | BODIPY-LDL uptake by HepG2 cells, fluorescence, 16.8 nM, replicate 2 [6] | BODIPY-LDL uptake by HepG2 cells, fluorescence, 66.7 nM, replicate 1 [6] | BODIPY-LDL uptake by HepG2 cells, fluorescence, 66.7 nM, replicate 2 [6] | Fluorescence Signal Value [7] | Fluorescence Signal Value [8] | Fluorescence Signal Value [9] | Kd [10] [pM] | Kd [11] [pM] | Kd [12] [pM] | Kd [13] [pM]
1 | B1 | ~2 | 10400 | 5700 | 544 | 295 | 0.423 | 0.435 | 0.78 | 0.742 | 0.749 | 0.797 | 5090 | 5680 | 8910 | – | – | – | –
2 | B2 | ~2 | 6800 | 5220 | 855 | 471 | 0.357 | 0.401 | 0.574 | 0.561 | 0.706 | 0.752 | 5160 | 5830 | 6830 | – | – | – | –
3 | B3 | ~2 | 6890 | 5330 | 589 | 311 | 0.38 | 0.399 | 0.712 | 0.706 | 0.774 | 0.741 | 5140 | 5640 | 6500 | – | – | – | –
4 | B4 | – | – | – | – | – | – | – | – | – | – | – | – | – | – | 41 | 4.2 | 5.9 | 4
5 | B5 | ~2 | 6860 | 5090 | 558 | 296 | 0.37 | 0.403 | 0.72 | 0.683 | 0.758 | 0.775 | 5260 | 5740 | 6480 | – | – | – | –
